Source: the supplement of paper PMC10567573

B1: P2RY14 (parent)
chain: KLLSVIVWMLMLLLAVPNIILTNQ
B2: RHOBTB3 (parent)
chain: KVVEAHKIVLCAVSHVFMLLFNVK

Variants of: B1
Assay: protein stability index of a GFP-peptide fusion (GPS, HEK-293T) (PSI 1-6); higher = more stable
Conditions: c terminus: a fixed tail appended
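Note: lentivirally expressed fusions sorted by FACS into six bins by GFP to DsRed ratio, PSI derived from sequencing read proportions per bin multiplied by bin number.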

Protein stability index of substitutions, site by site:
L21: N 2.28, D 2.99, F 2.73, S 2.57, P 1.98, I 3.12, C 3.7, M 2.96, T 3.22, E 2.6, H 2.2, G 3.21, A 3.89, R 4.98
N23: C 2.15, G 2.54, F 2.98, V 2.99, I 1, T 2.97, Y 2.21, M 2.42, R 1.92, D 3.86, E 3.67, K 2.45, W 2.57, A 2.34, H 3.59
N18: W 1.92, R 1.49, L 1.65, I 2.63, F 2.16, Y 2.09, A 1.99, E 2.5, C 2.1, K 2.59, P 2.78, G 3.62, T 2.89, H 3.81, V 1.58
I20: S 3.35, F 2.73, V 2.79, C 1.86, D 3.27, Y 3.09, A 2.31, N 2.31, P 4.08, E 3.69, L 2.52, K 3.1
P17: N 2.08, E 3, S 3.12, Q 2.82, V 1.23, M 1.52, H 2.96, I 1.95, C 2.41, L 2.97, G 3.39, D 2.68, W 1.98, R 2.8, F 2.69, Y 1.54, A 2.56, K 3.35, T 2.4
A15: W 2.2, V 2.77, N 3.1, C 3.31, M 3.03, L 2.56, D 3.06, H 3.28, Q 3.12, E 2.84, K 3.74, P 2.35
I19: R 2.2, P 3.43, F 2.98, Y 3.02, T 3.06, Q 1.89, S 2.07, K 1.76, M 1.29, D 2.8, A 3.24, N 3.66
T22: H 2.69, I 2.32, Y 3.3, M 2.38, N 2.75, S 3.96, W 2.92, K 3.2, V 4.59, D 4.01, F 2.97, L 2.2, A 2.75
L13: P 3.47, V 1.84, K 1.78, T 2.38, S 3.29, R 2.15, Y 3.48, N 3.02
Q24: G 2.91, R 3.28, I 2.79, V 1.96, C 2.79, F 2.69, W 2.33, L 3.08, H 2.8, D 4.62, P 2.59, T 2.81, K 2.6, E 2.74
L14: M 3.33, C 2.41, P 4.16, A 2.24, T 3.16, D 3.07, G 2.27, S 3.42, V 1.32, W 2.51, E 3.48, N 2.75, I 2.49, K 2.95, H 2.92
V16: S 2.89, M 3.43, T 2.01, N 3.98, A 2.77, C 3.32, D 2.52, Q 3.43, E 2.6, L 3.59, F 4.27, G 2.36, I 3.43, P 2.75, H 2.06

Variants of: B2
Assay: as above
Conditions: c terminus: a fixed tail appended

Protein stability index: each site, then its substitutions
E4: I 2.78, H 2.69, W 1.42, P 2.37, V 2.79, Y 2.75, K 3.02, D 2.33, S 1.9, C 2.67, M 2.54, L 2.08, Q 2.23, T 2.53, R 2.69, F 2.23, A 2.24
I8: K 2.59, Y 1.88, C 2.2, G 2.84, V 1.68, E 1.98, F 2.48, R 2.17, A 2.45, P 2.29, W 3.31, T 2.93, N 1.89, M 3.3, H 2.52, D 2.04, Q 2.41
C11: D 2.13, A 2.85
V3: P 3.35, Y 2.53, S 2.39, G 2.38, T 2.36, R 2.02, D 2.2, I 3.11, Q 3.48, N 3.87, K 3.12, E 1.82, C 2.3, M 3.1, L 2.09, F 3.62
K7: C 1.83, Y 3.35, V 2.31, E 2.9, M 2.93, T 2.64, A 3.36, R 2.65, Q 3, N 2.31, P 2.02, G 2.79, L 2.74, F 2.99, W 2.34, S 2.01, D 3.98
K1: H 2.2, I 2.87, Y 2.58, S 2.46, W 3.19, L 3.15, Q 1.9, D 4.55, E 3.04, N 2.52, A 3.06, R 2.68, T 2.71, G 2.31, F 4.17, C 3.06, P 3.1
V2: S 3.24, G 2.64, M 2.9, E 2.64, I 3.58, Y 1.86, T 2.6, D 2.57, K 1.62, L 2.32, P 3.44, F 2.5, C 2.18, A 2.96, Q 2.04, N 2.44
V9: C 2.32, A 1.87, P 2.36, H 2.71, G 2.12, D 2.67, F 2.7, T 2.47, W 3.46, M 2.83, L 3.24, K 3.01, Q 2.73, Y 1.64, R 3.25, I 2.87, E 2.79, S 3.31
H6: W 2.24, S 1.92, G 1.84, A 1.84, L 1.75, C 2.58, F 2.13, V 1.77, R 3.29, I 1.85, K 2.65, T 1.79, P 2.4, Q 1.5, E 2.21, M 1.63, N 3.4
A5: E 3.14, V 2.48, G 3.1, R 3.59, K 2.58, Q 4.3, H 2.9, Y 3.88, W 3.03, T 1.72, L 1.76, N 2.07, D 3.37, C 2.77, P 3.11, S 3.05, M 3.42, F 2.45
L10: W 1.55, N 3.5, Y 3.18, P 1.82, R 1.64, S 3.43, V 3.3, D 2.5, E 2.73, G 3.06, T 3.3, I 2.64, A 1.75, K 2.13, F 2.66
